Data published in publication PMC10133702.
Where two headings read alike, the source gives them in different places.

Tests used:
Assay in all cases: radioligand binding
[1] = target: [T184F S186E]Ls-AChBP, Ub-tagged (Lymnaea stagnalis) (UniProt P58154)
[2] = target: Ubiquitin (Ub)-tagged Ls-AChBP, wild type (Lymnaea stagnalis) (UniProt P58154)
[3] = target: [H69A]Ls-AChBP, Ub-tagged (Lymnaea stagnalis) (UniProt P58154)
[4] = target: [R23D]Ls-AChBP, Ub-tagged (Lymnaea stagnalis) (UniProt P58154)
[5] = target: Ubiquitin (Ub)-tagged Ls-AChBP, wild type (Lymnaea stagnalis) (UniProt P58154); remark: listed apart in the source
[6] = target: [S186E]Ls-AChBP, Ub-tagged (Lymnaea stagnalis) (UniProt P58154)
[7] = target: [T184F]Ls-AChBP, Ub-tagged (Lymnaea stagnalis) (UniProt P58154)
[8] = target: [Q55K]Ls-AChBP, Ub-tagged (Lymnaea stagnalis) (UniProt P58154)
[9] = target: [T184K]Ls-AChBP, Ub-tagged (Lymnaea stagnalis) (UniProt P58154)

Row | Substance | IC50 [1] [µM] | IC50 [2] [µM] | IC50 [3] [µM] | IC50 [4] [µM] | IC50 [5] [µM] | IC50 [6] [µM] | IC50 [7] [µM] | IC50 [8] [µM] | IC50 [9] [µM]
1 | VxXXB-CNC, full-length synthetic VxXXB (peptide) | 0.004 | 0.8 | > 10 | > 10 | – | – | – | – | –
2 | VxXXB-C(21–50), C-terminal domain of αD-conotoxin VxXXB (peptide) | 0.05 | – | – | – | 10 | 0.04 | 7.2 | 36 | 55
3 | VxXXB-C(19–50), full-length C-terminal domain of αD-conotoxin VxXXB (peptide) | 0.03 | 10 | 10 | 10 | 7.2 | 0.09 | 0.58 | 29.7 | > 100
4 | native αD-conotoxin VxXXB (from UniProt P0C1W6 46-95) (natural protein) | 0.001 | – | – | – | 0.011 | – | – | – | –
